According to patent US20170173114A1, “METHODS AND COMPOSITIONS FOR INDUCTION OF UCP1 EXPRESSION” (Joslin Diabetes Center, Inc., priority 2014, published 2017):
Entries after “also recorded” stand apart in the source; their conditions may differ.

Experiments:
UCP1 [1] = assay: UCP1 mRNA expression in C2C12 myogenic progenitors; assay type: cell-based; details: three days
WT-1 brown preadipocytes [2] = assay: 2-deoxy-[3H]glucose uptake in WT-1 brown preadipocytes; assay type: cell-based, murine; details: FGF6 overexpressing vs control and EGF
Method: (§1) The following glucose uptake assay was used to determine whether FGF6 could impact cellular glucose uptake. Specifically, glucose uptake was monitored in WT-1 brown preadipocytes and 3T3-F442A white preadipocytes in the presence or absence of FGF6. After serum starvation in DMEM/H medium containing 1% of BSA for 2-3 h, cells were washed with HEPES buffer and then incubated with or without 100 nM insulin for 30 min in DMEM/H medium containing 1% of BSA. Glucose transport was determined by the addition of 2-deoxy-[3H]glucose (0.1 mM, 0.5 μCi/mL; PerkinElmer Life and Analytical Science, Waltham, Mass.). After 5 minutes of incubation, the reaction was stopped by ice-cold PBS and cells were washed twice with ice-cold PBS. Cells were then lysed in 0.1% SDS, and glucose uptake was assessed in 4 mL of scintillant using Beckman LS6500 scintillation counter (Beckman Coulter, Indianapolis Ind.). Nonspecific 2-deoxy-[3H]glucose uptake was measured in the presence of cytochalasin B (20 μM) and was subtracted from the total uptake to get specific glucose uptake. Results were expressed as the mean±s.e.m. of the indicated number of experiments. The protein content was determined by the Bradford method.
The role of PGs in regulating mitochondrial function and cellular glucose uptake was also assessed. […]

UCP1 [3] = assay: High-throughput screen of secreted proteins for UCP1 mRNA induction in committed brown preadipocytes; assay type: cell-based, murine; details: after induction media; secreted protein library
Method: To identify protein(s) that can induce UCP1 expression in brown preadipocytes, a high-throughput screen was performed using a protein library containing more than 5,000 mammalian secreted proteins (Lin H. et al., Science 320:807-811, 2008) in an immortalized murine brown preadipocyte cell line (Klein J. et al., J. Biol. Chem. 274:34795-34802, 1999; Tseng Y. H. et al., Nat. Cell. Biol. 7:601-611, 2005). The screen included applying induction media to brown preadipocyte cells, resulting in committed brown preadipocytes.

WT-1 brown preadipocytes [4] = assay: Extracellular acidification rate (glycolysis) profile in FGF6 overexpressing WT-1 brown preadipocytes; assay type: cell-based, murine; details: FGF6 overexpressing WT-1 vs control cells
Method: To determine whether nutrient supply could regulate mitochondrial activity in FGF6-treated cells, concentrations of glucose in the assay media of cells were manipulated and measured in the Seahorse Bioanalyzer. FGF6 was stably expressed in WT-1 brown preadipocytes and 3T3-F442A white preadipocytes. Stable cells were generated by viral infection followed by drug selection.
A profile of the extracellular acidification rate (ECAR) was developed as described in FIG. 20A. 10 mM glucose was added to the assay media, which was then taken up by the cells and catabolized through glycolysis, producing ATP and protons, and resulting in a rapid increase in ECAR. […] Lastly, the glycolysis inhibitor 2-DG was added to measure […].

[5] = system: WT-1 murine brown preadipocytes; assay: Oil Red O staining of lipid accumulation in WT-1 cells; assay type: cell-based; details: WT-1, absence of induction cocktail
Method: Cell culture dishes were washed twice with phosphate-buffered saline and fixed with 10% buffered formalin overnight at 4° C. Cells were then stained for 2 hours at room temperature with a filtered oil red O solution (0.5% oil red O in isopropyl alcohol), washed twice with distilled water, and visualized.
The effect of FGF6 on differentiation of WT-1 murine brown preadipocytes was also examined. WT-1 cells can be induced to undergo brown adipocyte differentiation, characterized by lipid accumulation and expression of adipogenic and brown fat markers, as described above (Klein et al. (1999) J Biol Chem 274:34795; Tseng et al. (2005) Nat Cell Biol 7:601). WT-1 cells were treated with FGF6 in growth media (DMEM+10% FBS), a vehicle control (“control” or “C” referred to in FIGS. 3A-D), or induction media (“induction” or “I” referred to in FIGS. 3A-D) as described above for seven days. Following the treatment, cells were examined for the color of the culture media in combination with oil Red O staining, expression of adipogenic markers, expression of brown fat markers, immunofluorescent staining of cells with UCP1 and DPAI, and Western blot analysis to determine the presence of UCP1 and β-tubulin. The results are described in FIGS. 3A to 3D.

WT-1 brown preadipocytes [6] = assay: Mitochondrial DNA copy number and mitochondrial gene expression in brown preadipocytes; assay type: cell-based, murine; details: 24 hours; vs control
Method: In order to determine whether the marked changes in mitochondrial respiration observed in preadipocytes treated with FGF6 is due to increased mitochondrial mass and/or changes in mitochondrial dynamics, in addition to increased UCP1 expression, mitochondrial DNA (mtDNA) copy number (as the ratio of CoxII (mtDNA) over β-globin (nuclear DNA)) and expression of genes involved in mitochondrial replication (e.g., mTFA, Nrf1 and Nrf2) in brown preadipocytes was measured.

mature brown adipocytes = assay: Glucose uptake in mature brown adipocytes; assay type: cell-based; details: vs control
Method: as §1, with “After 5 minutes of incubation, the reaction was stopped by ice-cold PBS and cells were washed twice with ice-cold PBS.” left out
To assess mitochondrial respiration, a Seahorse Extracellular Flux Analyzer (Seahorse Bioscience Inc., North Billerica, Mass.) was used to quantify oxygen consumption rates (OCR) of differentiated human brown adipocytes. […] After adipogenic induction for 8 days, OCR was analyzed. […]

[7] = Glucose tolerance test in Chow or high fat diet mice; assay type: in vivo, C57BL6 mice; details: Chow or HFD mice, i.p. glucose 2 mg/g after 16 h fast; particularly in obese HFD mice
Method: C57BL6 mice were fed either the Chow diet or a high fat diet (HFD) and were fasted overnight (16 h) prior to intraperitoneal injection of 2 mg/g body weight of glucose using a 20% (w/v) solution.

B1: FGF6: fibroblast growth factor 6; recombinant human FGF from R&D Systems, or mouse FGF6 cDNA overexpressed by lentiviral vector (protein)
chain: KRQRRLYCNVGIGFHLQVLPDGRISGTHEENPYSLLEISTVERGVVSLFGVRSALFVAMNSKGRLYATPSFQEECKFRETLLPNNYNAYESDLYQGTYIALSKYGRVKRGSKVSPIMTVTHFLPRI
UCP1 mRNA expression in C2C12 myogenic progenitors (UCP1 [1]): neither FGF6 nor FGF21 induced UCP1 mRNA expression; also recorded: no induction of UCP1
glucose uptake level in WT-1 (brown) preadipocytes (WT-1 brown preadipocytes [2]): increased
UCP1 mRNA expression in committed brown preadipocytes (screen) (UCP1 [3]): induced UCP1 mRNA expression
cellular glycolysis, glycolytic capacity and glycolytic reserve (ECAR) (WT-1 brown preadipocytes [4]): increase in cellular glycolysis, glycolytic capacity and glycolytic reserve
lipid accumulation by Oil Red O staining [5]: very little to no lipid accumulation
expression of nuclear-encoded mitochondrial genes (WT-1 brown preadipocytes [6]): not significantly altered
mitochondrial DNA copy number (CoxII over β-globin) (WT-1 brown preadipocytes [6]): no significant difference; also recorded: does not alter
glucose uptake in mature brown adipocytes (mature brown adipocytes): enhanced
glucose tolerance [7]: enhanced glucose tolerance; also recorded: improved glucose tolerance
